In publication PMC12648486, “A LisH-domain protein interaction map reveals a Lis1-ARIH2-dynein regulatory axis” (iScience, 2025):

Biological target: T1, MBP-ARIH2 (UniProt O95376 1-493)
T1 construct: RBR-type E3 ubiquitin ligase ARIH2, cloned in this study into an MBP-tagged Gateway vector; source: E. coli BL21 (DE3), purified (Dextran-Sepharose, maltose elution)
T1 sequence (looked up): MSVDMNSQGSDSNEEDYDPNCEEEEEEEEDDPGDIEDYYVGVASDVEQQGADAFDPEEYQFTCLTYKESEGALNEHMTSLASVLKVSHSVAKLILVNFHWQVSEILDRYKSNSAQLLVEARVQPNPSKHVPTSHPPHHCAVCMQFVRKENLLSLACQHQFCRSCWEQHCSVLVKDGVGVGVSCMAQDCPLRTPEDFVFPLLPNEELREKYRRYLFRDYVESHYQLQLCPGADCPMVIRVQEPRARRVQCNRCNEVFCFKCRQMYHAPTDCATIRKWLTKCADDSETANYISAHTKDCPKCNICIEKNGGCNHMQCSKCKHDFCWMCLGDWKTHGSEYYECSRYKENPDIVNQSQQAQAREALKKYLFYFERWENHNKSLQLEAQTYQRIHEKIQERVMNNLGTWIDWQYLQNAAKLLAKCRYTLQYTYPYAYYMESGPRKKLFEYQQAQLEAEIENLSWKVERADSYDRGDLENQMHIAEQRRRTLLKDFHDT
Assay: pull-down; bacterially purified recombinant GST-tagged protein incubated with purified MBP-ARIH2; eluates immunoblotted with MBP antibody
Conditions: both partners purified

binding result: binds
B1: GST-Lis1 (natural protein, human, UniProt P43034 1-410, looked up)
chain: MVLSQRQRDELNRAIADYLRSNGYEEAYSVFKKEAELDVNEELDKKYAGLLEKKWTSVIRLQKKVMELESKLNEAKEEFTSGGPLGQKRDPKEWIPRPPEKYALSGHRSPVTRVIFHPVFSVMVSASEDATIKVWDYETGDFERTLKGHTDSVQDISFDHSGKLLASCSADMTIKLWDFQGFECIRTMHGHDHNVSSVAIMPNGDHIVSASRDKTIKMWEVQTGYCVKTFTGHREWVRMVRPNQDGTLIASCSNDQTVRVWVVATKECKAELREHEHVVECISWAPESSYSSISEATGSETKKSGKPGPFLLSGSRDKTIKMWDVSTGMCLMTLVGHDNWVRGVLFHSGGKFILSCADDKTLRVWDYKNKRCMKTLNAHEHFVTSLDFHKTAPYVVTGSVDQTVKVWECR
notes: Lis1 (PAFAH1B1), human, in a GST-tagged Gateway vector; source: E. coli BL21 (DE3), purified (Glutathione Sepharose)
